Literature values as cited in publication PMC12023029.

Molecular target: His50 (UniProt position 50, KEGVVHGVATV)
Experiment: NMR (per title of cited reference 59)
Details: free monomer, disordered

Q: Which pKa (150 mM salt, high salt) does the source give for “alpha-synuclein (aSyn) (Homo sapiens (inferred; the article does not name the species and discusses Parkinson's disease patients))” here?
A: The pKa was 6.5.

Q: What about the pKa (low salt, article gives '4' mM as the lower end of the salt change) of the same substance?
A: Its pKa is 6.8.
